Molecular target: pooled human IgG (human IgG1, 2, 3 and 4)

| Protein | Enzyme Activity Endpoint Assay: Fab′2 | Enzyme Activity Endpoint Assay: Fc | Enzyme Activity Endpoint Assay: IgG | Enzyme Activity Endpoint Assay: scIgG |
| --- | --- | --- | --- | --- |
| PRT-493 (protein) MVTSVWTKGVTPPTNFTYGEDVLHAPYVANQGWYDITKTFNGKDNLLCGAATAGNMLHWWFDQNKEQIENYLKKHPEKQKIIFNNQELFDLKAAIDTKDSQLDSKLFEYFKEKAFPYLSTKHLGVFPDHVIDMFINGYRLSLTNHGPTPVKRGSKDKRGGIFDAVFTRGVQSKLLTNRHDLKNKTLKEISDLIKQELTEGKALGISHTYANVRINHVINLWGADFDAEGNLEAIYVTDSDTNASIGMKKYFVGVNSNGKVAISAKEIEEDNIGAQVLGLFTLSTGQDIWNQTNLEHHHHHH | 1170 ng/µL | 412 ng/µL | 0 ng/µL | 0 ng/µL |
| PRT-514 (protein) MITSVWTKGVTPPTDFIKGEDVFHAPYKAGQGWYDITKAFDGGDDLLCGAATAGNMLHWWFDQNKEEIEAYLKKHPEKQKIMFGDQELLDVRKVINTKDSQTNSALFNYFKDKAFPNLSARRLGVMPDLVLDMFINGYYLNVYKTQTTDVNRQEQTKDRRGGIFDAVFGRGDQTKLLTERHDFKEKTLNEISQLIKQELTEGKALGLSHTYANVRINHVINLWGADFDAEGNLEAIYVTDSDSNASIGMKKYFVGVNSAGKVAISAKEIKEDNIGAQVLGLFTLSTGQKIWNKTNLEHHHHHH | 64 ng/µL | 37 ng/µL | 0 ng/µL | 0 ng/µL |
| PRT-483 (protein) MVTSVWTKGVTPPTDFIKGEDVFHAPYKAGQGWYDITKTFNGKDNLLCGAATAGNMLHWWFDQNKDQIEAYLKEHPEKQKIIFNNQELFDLKAAIDTKDDQTNSKLFEYFKEKAFPYLSTKHLGVFPDHVLDMFINGYRLSLTNHGPTPVKEGSKDKRGGIFDAVFTRGVQSKLLTSRHDLKNKTLKEISDLIKQELTEGKALALSHTYANVRINHVINLWGADFDSNGNLEAIYVTDSDTNASIGMKKYFVGVNSAGKVAISAKEIEDDNIGAQVLGLFTLSTGQDIWNQTNLEHHHHHH | 1260 ng/µL | 459 ng/µL | 0 ng/µL | 0 ng/µL |
| PRT-487 (protein) MVTSVWTKGVTPPTDFIKGEDVFHAPYKAGQGWYDITKTFNGKDNLLCGAATAGNMLHWWFDQNKDQIERYLKEHPEKQKIIFNNQELFDLKAAIDTKDSQTDSKLFEYFKEKAFPYLSTKHLGVFPDHVLDMFINGYRLSLTNHGPTPVKEGSKDKRGGIFDAVFTRGVQSKLLTSRHDLKNKTLKEISDLIKQELTEGKALGLSHTYANVRINHVINLWGADFDSEGNLKAIYVTDSDTNASIGMKKYFVGVNSAGKVAISAKEIKEDNIGAQVLGLFTLSTGQDIWNQTNLEHHHHHH | 0 ng/µL | 22 ng/µL | 0 ng/µL | 0 ng/µL |
| PRT-451 (protein) MVTSVWTKGVTPPANFRKIVDGNIAYYHAPYKANQGWYDITKTFNGKDDLLCGAATAGNMLHWWFDQNKDQIEAYLKEHPEKQKINFNGEQMFDVKEAIDTKDDQTNSKLFEYFKEKAFPYLSTKHLGVFPDHVLDMFINGYRLSLTNHGPTPVKEGSKDPRGGIFDAVFTRGDQSKLLTSRHDLKNKTLKEISDLIKQELTEGKALALSHTYANVRINHVINLWGADFDSNGNLEAIYVTDSDSNASIGMKKYFVGVNSAGKVAISAKEIEDDNIGAQVLGLFTLSTGQDIWNQTNLEHHHHHH | 1250 ng/µL | 324 ng/µL | 0 ng/µL | 0 ng/µL |
| PRT-471 (protein) MVTSVWTKGVTPPTDFIYGEDVLHAPYKAGQGWYDITKAFDGGDDLLCGAATAGNMLHWWFDQNKEQIENYLKKHPEKQKINFNGEQMFDVKEAIDTKDSQTNSELFNYFKEKAFPYLSTKHLGVFPDHVIDMFINGYRLSLTNHGPTPVKRGSKDPRGGIFDAVFTRGDQSKLLTNRHDFKEKTLKEISDLIKQELTEGKALGISHTYANVRINHVINLWGADFDAEGNLEAIYVTDSDSNASIGMKKYFVGVNSNGKVAISAKEIEEDNIGAQVLGLFTLSTGQDIWNQTNLEHHHHHH | 1110 ng/µL | 357 ng/µL | 0 ng/µL | 0 ng/µL |
| PRT-614 (protein) MQITSVWTKGVKPLTPEQFRYNNEDVIHAPYLAHQGWYDITKAFDGKDNLLCGAATAGNMLHWWFDQNKTEIEAYLSKHPEKQKIIFNNQELFDLRAAIDTKDSQTNSQLFNYFRDKAFPNLSARQLGVMPDLVLDMFINGYYLNVFKTQSTDVNRPYQDKDKRGGIFDDVFTRGDQTTLLTARHDLKNGGLNDISTIIKQELTEGRALALSHTYANVSISHVINLWGADFNAEGNLEAIYVTDSDANASIGMKKYKVGINAHGHVAISAKKIEGENIGAQVLGLFTLSSGKDIWQKLSLEHHHHHH | 0 ng/µL | 0 ng/µL | 0 ng/µL | 0 ng/µL |
| PRT-662 (protein) MQITSVWTKGVTPLTPEQFRYNNEDVFHAPYLAHQGWYDITKAFDGKDNLLCGAATAGNMLHWWFDQNKTEIEAYLSKHPEKQKIIFNNQELFDLRAAINTKDSQTNSQLFNYFRDKAFPNLSARQLGVMPDLVLDMFINGYYLNVFKTQSTDVNRPYQDKDKRGGIFDAVFTRGDQTTLLTARHDLKNKGLNDISTLIKQELTEGRALALSHTYANVSISHVINLWGADFNAEGNLEAIYVTDSDANASIGMKKYFVGINASGHVAISAKKIEGENIGAQVLGLFTLSSGKDIWQKLSLEHHHHHH | 8 ng/µL | 13 ng/µL | 0 ng/µL | 0 ng/µL |
| PRT-500 (protein) MVTSVWTKGVTPPADFTQGEDVFHAPYVANQGWYDITKAFDGGDDLLCGAATAGNMLHWWFDQNKEYIEAYLKKHPEKQKIMFGDQELLDVRKAINTKGSQKNSELFNYFRDKAFPNLSARRLGVMPDLVLDMFINGYYLNVTKTQTTDVNRTYQEKDKRGGIFDAVFTRGDQSKLLTSRHDLKNKGLKEISDLIKQELTEGKALGLSHTYANVRINHVINLWGADFDSDGNLKAIYVTDSDSNASIGMKKYFVGVNSAGKVAISAKEIKEDNIGAQVLGLFTLSTGQDIWNQTNLEHHHHHH | 25 ng/µL | 30 ng/µL | 0 ng/µL | 0 ng/µL |
| PRT-519 (protein) MVTSVWTKGVTPPTDFIKGEDVFHAPYKAGQGWYDITKTFNGKDNLLCGAATAGNMLHWWFDQNKEYIEAYLKKHPEKQKIIFNNQELFDLKAAINTKGSQKNSELFNYFRDKAFPNLSARRLGVFPDLVLDMFINGYYLNVTKTQTTDVNRTYQEKDKRGGIFDAVFTRGVQSKLLTSRHDLKNKGLKEISDLIKQELTEGKALGLSHTYANVRINHVINLWGADFDSDGNLKAIYVTDSDTNASIGMKKYFVGVNSAGKVAISAKEIKEDNIGAQVLGLFTLSTGQDIWNQTNLEHHHHHH | 0 ng/µL | 17 ng/µL | 0 ng/µL | 0 ng/µL |
| PRT-452 (protein) MVTSVWTKGVTPPANFTQGEDVFHAPYKANQGWYDITKAFDGGDDLLCGAATAGNMLHWWFDQNKDQIEAYLKEHPEKQKINFNGEQMFDVKEAIDTKDDQTNSELFNYFKEKAFPYLSTKHLGVFPDHVLDMFINGYRLSLTNHGPTPVKEGSKDPRGGIFDAVFTRGDQSKLLTSRHDLKNKTLKEISDLIKQELTEGKALALSHTYANVRINHVINLWGADFDSNGNLEAIYVTDSDSNASIGMKKYFVGVNSAGKVAISAKEIEDDNIGAQVLGLFTLSTGQDIWNQTNLEHHHHHH | 0 ng/µL | 0 ng/µL | 1870 ng/µL | 0 ng/µL |
| PRT-464 (protein) MVTSVWTKGVTPPANFTQGEDVFHAPYVANQGWYDITKAFDGGDDLLCGAATAGNMLHWWFDQNKDQIERYLKEHPEKQKINFNGEQMFDVKEAIDTKDSQTNSELFNYFKEKAFPYLSTKHLGVFPDHVLDMFINGYRLSLTNHGPTPVKEGSKDPRGGIFDAVFTRGDQSKLLTSRHDLKNKTLKEISDLIKQELTEGKALGLSHTYANVRINHVINLWGADFDSEGNLKAIYVTDSDSNASIGMKKYFVGVNSAGKVAISAKEIKEDNIGAQVLGLFTLSTGQDIWNQTNLEHHHHHH | 0 ng/µL | 58 ng/µL | 0 ng/µL | 0 ng/µL |
| PRT-453 (protein) MVTSVWTKGVTPPANFTQGEDVFHAPYKANQGWYDITKTFNGKDDLLCGAATAGNMLHWWFDQNKDQIEAYLKEHPEKQKINFNGEQMFDVKEAIDTKDDQTNSKLFEYFKEKAFPYLSTKHLGVFPDHVLDMFINGYRLSLTNHGPTPVKEGSKDPRGGIFDAVFTRGDQSKLLTSRHDLKNKTLKEISDLIKQELTEGKALALSHTYANVRINHVINLWGADFDSNGNLEAIYVTDSDSNASIGMKKYFVGVNSAGKVAISAKEIEDDNIGAQVLGLFTLSTGQDIWNQTNLEHHHHHH | 1620 ng/µL | 607 ng/µL | 17 ng/µL | 0 ng/µL |
| PRT-523 (protein) MITSVWTKGVTPPTDFIKGEDVFHAPYKAGQGWYDITKTFNGKDNLLCGAATAGNMLHWWFDQNKEEIEAYLKKHPEKQKIIFNNQELFDLKAVINTKDSQTNSALFNYFKDKAFPNLSARRLGVFPDLVLDMFINGYYLNVYKTQTTDVNRTYQTKDRRGGIFDAVFTRGVQSKLLTERHDLKNKTLKEISDLIKQELTEGKALGLSHTYANVRINHVINLWGADFDSNGNLEAIYVTDSDTNASIGMKKYFVGVNSAGKVAISAKEIKEDNIGAQVLGLFTLSTGQDIWNQTNLEHHHHHH | 17 ng/µL | 24 ng/µL | 0 ng/µL | 0 ng/µL |

— patent US20250027068
